The test is classed as binding. To be noted: for STX/F-STX affinity compared with RcSxph / Kd: FP; for Kd: 1 nM F-STX, 25° C., errors S.D.; for ΔΔG: ΔΔG = RT ln(Kd mutant or XSxph/Kd RcSxph), T = 298K, FP with F-STX.

The record followed here is patent publication US20260034194A1, “PHARMACEUTICAL COMPOSITIONS AND METHODS OF TREATING PSP” (priority 2022, published 2026).

Substitutions are numbered along the chain they refer to. Names may count otherwise. “Also recorded” adds a separate entry of the source.

As a reminder, the Kd is the free concentration of one partner at which half of the binding sites on the other are occupied at equilibrium, for simple one-to-one binding. Higher therefore signals a looser complex.

B1: MaSxph: Mantella aurantiaca (Golden mantella) saxiphilin, SEQ ID NO: 3 (protein, listed as Mantella aurantiaca)
chain: MALTFQTALYFTIIGLSFVTSSARDVRWCVISDLEQKKCNDLVGSCKVSGITLVCVHRSSTENCMTAIRDEQADAMFLDSGDVYKASMSPYNLKPIIAESYSSHKECLKKRQEALGGANVLGQFVPQCDEKGSYQPQQCYGSTGHCWCVNAIGEEIVGTKTQPGQTQATCERHDQTKCLKDRQKALAKKMIGGFVPQCDEKGNFKPRQCHGSTGYCWCTNANGEKIAATNTPPQQSPPTCERHDLDSCHYAVAVVKKSSIFQFNQLKGKRSCHSGVSKTDGWKAPVSVLVDKNLLSWDRAAKESIEKAVSKFFSDSCIPGATETNLCNQCMGEGGKKCMSSHDEPYYGDHGAFRCLKEDKGDVAFLKNTVLSDTHSEDYELLCPDNTRKPLNKYKECNLGKVPADAVVTRKSGDKIKDINDFLLEAQKKHCQLFSSAHGKDLMFDDSTTQLSLLPPEVDVFFFLGVQWLNTMKTLTADVKPPSKNKVRWCTVNNLEKMKCDDWSAVSGGAIECTEASSPEHCIKQIVKGEADAVTLDVQYMYEALKCGLLPAVEEYHNKDDFGPCKTPGSEIKDFGAKRAVALVKKSNKDINWHNLKGKKSCHTGVGDQAGWIIPVGLISRQIDNCNIDSFFSESCAPGSDTTSNFCKLCIGDPSNPMANTKCSLSDKEAYHGNEGAIRCLVEKGDVAFVHHTAVFENTDGKNPAEWAANLKSEDFEILCLDGSRAPVSNYMTCRLSGVPPRAIVTREESVSDVVRILINQQSLFGRNGFEKDMFQMFSSNKGQNLLFNDGTQCLIEFDRQPRGIMEDYFGKPYYNAVYNTSKCVLPSELTSACTFKHC
For B1, the “STX/F-STX affinity compared with RcSxph” value is “enhanced affinity”, the Kd is 0.4 ± 0.1 nM and the “ΔΔG” value is -1.73 kcal/mol.

B2: RiSxph: Ranitomeya imitator (Mimic poison frog) saxiphilin, SEQ ID NO: 6 (protein)
chain: MRRSSYAASQEMRMTLRVLLCLCLWALSSAAPNTRNVRWCVTSDTEEQKCNDLVTSCHVDEILLICVKKSSTEDCVRAISNGEADAISLDSKDVYKASLDPFNLKPIMTEAYSESEHTPCMRHRQSVLGGKIMKIGAFVPKCDEKGNYVPKQCHGSTGYCWCLNENGEEIEGTRTPPGNPGLTCENKANKPPCLKERQKLLSAKPSPAVFVPECDEKGNYRPQQSHVYSWCVDEYGEEVFGSRSFPGKPPKPCEASGETPCIKERNKVLSAAEPLLGAFVPDCDEKGYFSPLQSHGSTGYSWCVTKNGDEIKGTRTGPGQSPPTCEVPAPVTLHYAVAVVKKSSSFHLDQLKGKRSCHSAVGEAAGWVAPLNVLLKKKLLLWEEPEPKTIEKVASEIFSASCAPGAQEANLCEQCAGQEDKCTRGPGEPYYGDEGAFRCLREDKGDVAFVEDTALTGQYSDNFELLCPDNTRRPLSQYKICNFGRIPRHAVVTRSSGDKMKDITEYLLQAQKKECKLFSSTHGKDLLFEDTTSALIALPSAMDTFLFLGPDLFNGMKTLNGARPPQVNQQIRWCPQSKNEKKKCDDWSSVSGGAIKCTEPSSGLECIKMILKGEAEAVNLDIEHSYIALKCGLLPSVDEYRNKDDLIPCQIPGSEYSEFGSYRIVALVKKTDKDLTWNNLQGKKSCHTRAGDMIGWNIPVYLISKKTKNCDLGSYFSQSCAPGSPIDSNLCKLCIGDPQNPQANTKCSISDKEAYYGHEGAIRCLVEKGDVAFVPHTAIFENTDGKNPALWAKDLKSTDFELLCPDGSRAPVNDYKKCKLSGIANQIAITRPESVKDVVRIIQNQQSLYGRTGSQKDIFQMFSSSYGQNLLFSDRTQCLVEFDRMLDRDIMDDYFGKPFHKHLLRDNDCLPKSALASACSFHH
modifications: Ranitomeya imitator
In the case of B2, the “STX/F-STX affinity compared with RcSxph” value is “higher affinity for STX than RcSxph; also recorded: binds STX more strongly than RcSxph”, the Kd was 0.8 ± 0.3 nM and the “ΔΔG” value was -1.32 kcal/mol.

B3: E540Q: RcSxph STX binding pocket mutant E540Q (protein)
chain: MAPTFQTALFFTIISLSFAAPNAKQVRWCAISDLEQKKCNDLVGSCNVPDITLVCVLRSSTEDCMTAIKDGQADAMFLDSGEVYEASKDPYNLKPIIAEPYSSNRDLQKCLKERQQALAKKMIGHYIPQCDEKGNYQPQQCHGSTGHCWCVNAMGEKISGTNTPPGQTRATCERHELPKCLKERQVALGGDEKVLGRFVPQCDEKGNYEPQQFHGSTGYSWCVNAIGEEIAGTKTPPGKIPATCQKHDLVTTCHYAVAMVKKSSAFQFNQLKGKRSCHSGVSKTDGWKALVTVLVEKKLLSWDGPAKESIQRAMSKFFSVSCIPGATQTNLCKQCKGEEGKNCKNSHDEPYYGNYGAFRCLKEDMGDVAFLRSTALSDEHSEVYELLCPDNTRKPLNKYKECNLGTVPAGTVVTRKISDKTEDINNFLMEAQKRQCKLFSSAHGKDLMFDDSTLQLALLSSEVDAFLYLGVKLFHAMKALTGDAHLPSKNKVRWCTINKLEKMKCDDWSAVSGGAIACTEASCPKGCVKQILKGEADAVKLEVQYMYEALMCGLLPAVQEYHNKDDFGPCKTPGSPYTDFGTLRAVALVKKSNKDINWNNIKGKKSCHTGVGDIAGWVIPVSLIRRQNDNSDIDSFFGESCAPGSDTKSNLCKLCIGDPKNSAANTKCSLSDKEAYYGNQGAFRCLVEKGDVAFVPHTVVFENTDGKNPAVWAKNLKSEDFELLCLDGSRAPVSNYKSCKLSGIPPPAIVTREESISDVVRIVANQQSLYGRKGFEKDMFQLFSSNKGNNLLFNDNTQCLITFDRQPKDIMEDYFGKPYYTTVYGASRSAMSSELISACTIKHC
For the molecule B3, the Kd was determined as 10600 ± 1320 nM and the “ΔΔG” value is 4.30 kcal/mol.

B4: T563A: RcSxph STX binding pocket mutant T563A (protein)
chain: B3 chain with Q559E, T582A
In the case of B4, the Kd turned out to be 5.3 ± 0.5 nM and the “ΔΔG” value is -0.20 kcal/mol.

B5: D794N: RcSxph STX binding pocket mutant D794N (protein)
chain: B3 chain with Q559E, D813N
Regarding B5, the Kd was 3230 ± 397 nM and the “ΔΔG” value was 3.60 kcal/mol.

B6: F784L: RcSxph STX binding pocket mutant F784L (protein)
chain: B3 chain with Q559E, F803L
On to B6, for which the affinity, expressed as Kd, was 48 ± 6.8 nM and the “ΔΔG” value stood at 1.11 kcal/mol.

B7: K789A: RcSxph STX binding pocket mutant K789A (protein)
chain: B3 chain with Q559E, K808A
For B7, the Kd turned out to be 5.1 ± 1.7 nM and the “ΔΔG” value was -0.22 kcal/mol.

B8: F784C: RcSxph STX binding pocket mutant F784C (protein)
chain: B3 chain with Q559E, F803C
On to B8, for which the Kd is 1510 ± 346 nM and the “ΔΔG” value worked out at 3.15 kcal/mol.

B9: F784S: RcSxph STX binding pocket mutant F784S (protein)
chain: B3 chain with Q559E, F803S
Regarding B9, binding was put at a Kd of 3240 ± 508 nM and the “ΔΔG” value was 3.60 kcal/mol.

B10: I782F: RcSxph STX binding pocket mutant I782F (protein)
chain: B3 chain with Q559E, I801F
With B10, binding was put at a Kd of 16.1 ± 4.1 nM and the “ΔΔG” value was 0.46 kcal/mol.

B11: D785A: RcSxph STX binding pocket mutant D785A (protein)
chain: B3 chain with Q559E, D804A
For B11, the Kd was 19.5 ± 2.5 nM and the “ΔΔG” value was found to be 0.57 kcal/mol.

B12: Y558F: RcSxph STX binding pocket mutant Y558F (protein)
chain: B3 chain with Q559E, Y577F
With B12, binding was characterised by a dissociation constant (Kd) of 6.3 ± 2.3 nM and the “ΔΔG” value was -0.10 kcal/mol.

B13: F784A: RcSxph STX binding pocket mutant F784A (protein)
chain: B3 chain with Q559E, F803A
For B13, the Kd is 725 ± 109 nM and the “ΔΔG” value was 2.71 kcal/mol.

B14: Q787E: RcSxph STX binding pocket mutant Q787E (protein)
chain: B3 chain with Q559E, Q806E
Take B14: the Kd was 6.4 ± 1.6 nM and the “ΔΔG” value was -0.09 kcal/mol.

B15: I782A/Y558A: RcSxph STX binding pocket double mutant I782A/Y558A (protein)
chain: B3 chain with Q559E, Y577A, I801A
With B15, binding was characterised by a dissociation constant (Kd) of 1.2 ± 0.2 nM and the “ΔΔG” value was -1.07 kcal/mol.

B16: F784Y: RcSxph STX binding pocket mutant F784Y (protein)
chain: B3 chain with Q559E, F803Y
On to B16, for which the affinity, expressed as Kd, was 13.8 ± 1 nM and the “ΔΔG” value was determined as 0.37 kcal/mol.
